In the supplement of paper PMC10567573:

B1: ZNF263 (parent)
chain: VPGTQVGQGGKLWDPSVQSCKEGL
B2: TMEM175 (parent)
chain: ALLHQAETLQPSVWFGGREHVLMF

Variants of: B1
Assay: protein stability index of a GFP-peptide fusion (GPS, HEK-293T) (PSI 1-6); higher = more stable
Conditions: c terminus: a fixed tail appended
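Note: lentivirally expressed fusions sorted by FACS into six bins by GFP to DsRed ratio, PSI derived from sequencing read proportions per bin multiplied by bin number.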

Variant	protein stability index
VPGTQVGQGGKLWDPSVQSCKEML [G23M]	3.88
VPGTQVGQGGKLWDPSVQSCKEIL [G23I]	3.46
VPGTQVGQGGKLWDPSVQSCKEKL [G23K]	4.35
VPGTQVGQGGKLWDPSVQSCKENL [G23N]	4.34
VPGTQVGQGGKLWDPSVQSCKESL [G23S]	3.98
VPGTQVGQGGKLWDPSVQSCKEQL [G23Q]	3.51
VPGTQVGQGGKLWDPSVQSCKEPL [G23P]	4.32
VPGTQVGQGGKLWDPSVQSCKEAL [G23A]	3.89
VPGTQVGQGGKLWDPSVQSCKEHL [G23H]	3.64
VPGTQVGQGGKLWDPSVQSCKEDL [G23D]	4.36
VPGTQVGQGGKLWDPSVQSCKEWL [G23W]	3.12
VPGTQVGQGGKLWDPSVQSCKECL [G23C]	3.59
VPGTQVGQGGKLWDPSVQSCKEVL [G23V]	4.6
VPGTQVGQGGKLWDPSVQSCKEFL [G23F]	2.69
VPGTQVGQGGKLWDPSVQSCKERL [G23R]	4.34
VPGTQVGQGGKLWDPSVQSCKELL [G23L]	3.62
VPGTQVGQGGKLWDPSVQSCKETL [G23T]	3.96
VPGTQVGQGGKLWDPSVQSCKEEL [G23E]	4.4
VPGTQVGQGGKLWDPSVQSCKEYL [G23Y]	2.96
VPGTQVGQGGKLWDPSVQNCKEGL [S19N]	4.39
VPGTQVGQGGKLWDPSVQVCKEGL [S19V]	4.31
VPGTQVGQGGKLWDPSVQKCKEGL [S19K]	4.25
VPGTQVGQGGKLWDPSVQECKEGL [S19E]	4.38
VPGTQVGQGGKLWDPSVQACKEGL [S19A]	4.35
VPGTQVGQGGKLWDPSVQPCKEGL [S19P]	4.33

Variant	protein stability index
VPGTQVGQGGKLWDPSVQGCKEGL [S19G]	4.41
VPGTQVGQGGKLWDPSVQFCKEGL [S19F]	3.98
VPGTQVGQGGKLWDPSVQMCKEGL [S19M]	3.69
VPGTQVGQGGKLWDPSVQDCKEGL [S19D]	4.88
VPGTQVGQGGKLWDPSVQYCKEGL [S19Y]	3.76
VPGTQVGQGGKLWDPSVQLCKEGL [S19L]	4.04
VPGTQVGQGGKLWDPSVQCCKEGL [S19C]	3.39
VPGTQVGQGGKLWDPSVQHCKEGL [S19H]	4.05
VPGTQVGQGGKLWDPSVQRCKEGL [S19R]	3.89
VPGTQVGQGGKLWDPSVQWCKEGL [S19W]	3.38
VPGTQVGQGGKLWDPSVQICKEGL [S19I]	3.77
VPGTQVGQGGKLWDPSVQQCKEGL [S19Q]	4.3
VPGTQVGQGGKLWDPSVQTCKEGL [S19T]	4.29
VPGTQVGQGGKLWDPSVQSCKDGL [E22D]	4.25
VPGTQVGQGGKLWDPSVQSCKSGL [E22S]	3.95
VPGTQVGQGGKLWDPSVQSCKGGL [E22G]	4.34
VPGTQVGQGGKLWDPSVQSCKLGL [E22L]	2.96
VPGTQVGQGGKLWDPSVQSCKVGL [E22V]	3.79
VPGTQVGQGGKLWDPSVQSCKTGL [E22T]	4.42
VPGTQVGQGGKLWDPSVQSCKAGL [E22A]	3.06
VPGTQVGQGGKLWDPSVQSCKFGL [E22F]	2.58
VPGTQVGQGGKLWDPSVQSCKKGL [E22K]	4.49
VPGTQVGQGGKLWDPSVQSCKYGL [E22Y]	3.07
VPGTQVGQGGKLWDPSVQSCKPGL [E22P]	3.46
VPGTQVGQGGKLWDPSVQSCKRGL [E22R]	4.05

Variant	protein stability index
VPGTQVGQGGKLWDPSVQSCKCGL [E22C]	3.42
VPGTQVGQGGKLWDPSVQSCKHGL [E22H]	3.98
VPGTQVGQGGKLWDPSVQSCKIGL [E22I]	3.23
VPGTQVGQGGKLWDPSVQSCKNGL [E22N]	3.64
VPGTQVGQGGKLWDPSVQSCKMGL [E22M]	3.13
VPGTQVGQGGKLWDPSVQSCKQGL [E22Q]	3.84
VPGTQVGQGGKLWDPSVQSCKWGL [E22W]	1.99
VPGTQVGQGGKLWDPSVQSCKEGK [L24K]	4.8
VPGTQVGQGGKLWDPSVQSCKEGY [L24Y]	3.73
VPGTQVGQGGKLWDPSVQSCKEGV [L24V]	4.35
VPGTQVGQGGKLWDPSVQSCKEGM [L24M]	4.09
VPGTQVGQGGKLWDPSVQSCKEGS [L24S]	4.99
VPGTQVGQGGKLWDPSVQSCKEGR [L24R]	4.92
VPGTQVGQGGKLWDPSVQSCKEGE [L24E]	5.18
VPGTQVGQGGKLWDPSVQSCKEGD [L24D]	5.51
VPGTQVGQGGKLWDPSVQSCKEGH [L24H]	4.27
VPGTQVGQGGKLWDPSVQSCKEGQ [L24Q]	5.03
VPGTQVGQGGKLWDPSVQSCKEGA [L24A]	4.69
VPGTQVGQGGKLWDPSVQSCKEGW [L24W]	4.32
VPGTQVGQGGKLWDPSVQSCKEGN [L24N]	4.76
VPGTQVGQGGKLWDPSVQSCKEGP [L24P]	4.79
VPGTQVGQGGKLWDPSVQSCKEGG [L24G]	4.49
VPGTQVGQGGKLWDPSVQSCKEGI [L24I]	4.22
VPGTQVGQGGKLWDPSVQSCKEGC [L24C]	3.9
VPGTQVGQGGKLWDPSVQSCKEGT [L24T]	4.26

Variant	protein stability index
VPGTQVGQGGKLWDPSVQSCKEGF [L24F]	4.11
VPGTQVGQGGKLWDPSVQSCQEGL [K21Q]	4.29
VPGTQVGQGGKLWDPSVQSCAEGL [K21A]	3.91
VPGTQVGQGGKLWDPSVQSCWEGL [K21W]	3.52
VPGTQVGQGGKLWDPSVQSCTEGL [K21T]	5.17
VPGTQVGQGGKLWDPSVQSCVEGL [K21V]	3.89
VPGTQVGQGGKLWDPSVQSCMEGL [K21M]	3.92
VPGTQVGQGGKLWDPSVQSCDEGL [K21D]	4.79
VPGTQVGQGGKLWDPSVQSCHEGL [K21H]	4.05
VPGTQVGQGGKLWDPSVQSCLEGL [K21L]	3.69
VPGTQVGQGGKLWDPSVQSCSEGL [K21S]	3.72
VPGTQVGQGGKLWDPSVQSCGEGL [K21G]	3.99
VPGTQVGQGGKLWDPSVQSCFEGL [K21F]	3.27
VPGTQVGQGGKLWDPSVQSCCEGL [K21C]	4.64
VPGTQVGQGGKLWDPSVQSCEEGL [K21E]	4.78
VPGTQVGQGGKLWDPSVQSCNEGL [K21N]	4.16
VPGTQVGQGGKLWDPSVQSCYEGL [K21Y]	3.4
VPGTQVGQGGKLWDPSVQSCREGL [K21R]	4.04
VPGTQVGQGGKLWDPSVQSNKEGL [C20N]	4.68
VPGTQVGQGGKLWDPSVQSDKEGL [C20D]	4.59
VPGTQVGQGGKLWDPSVQSEKEGL [C20E]	5.02
VPGTQVGQGGKLWDPSVQSLKEGL [C20L]	4.05
VPGTQVGQGGKLWDPSVQSMKEGL [C20M]	4.43
VPGTQVGQGGKLWDPSVQSFKEGL [C20F]	3.1
VPGTQVGQGGKLWDPSVQSKKEGL [C20K]	4.13

Variant	protein stability index
VPGTQVGQGGKLWDPSVQSPKEGL [C20P]	4.33
VPGTQVGQGGKLWDPSVQSQKEGL [C20Q]	4.6
VPGTQVGQGGKLWDPSVQSWKEGL [C20W]	3.08
VPGTQVGQGGKLWDPSVQSIKEGL [C20I]	3.79
VPGTQVGQGGKLWDPSVQSHKEGL [C20H]	3.6
VPGTQVGQGGKLWDPSVQSVKEGL [C20V]	4.36
VPGTQVGQGGKLWDPSVQSRKEGL [C20R]	4.04
VPGTQVGQGGKLWDPSVQSTKEGL [C20T]	4.25
VPGTQVGQGGKLWDPSVQSSKEGL [C20S]	4.31
VPGTQVGQGGKLWDPSVQSGKEGL [C20G]	4.74
VPGTQVGQGGKLWDPSVQSYKEGL [C20Y]	3.52
VPGTQVGQGGKLWDPSVQSAKEGL [C20A]	4.15
VPGTQVGQGGKLWDPSVMSCKEGL [Q18M]	4.38
VPGTQVGQGGKLWDPSVKSCKEGL [Q18K]	4.39
VPGTQVGQGGKLWDPSVVSCKEGL [Q18V]	3.87
VPGTQVGQGGKLWDPSVTSCKEGL [Q18T]	4.47
VPGTQVGQGGKLWDPSVPSCKEGL [Q18P]	4.38
VPGTQVGQGGKLWDPSVYSCKEGL [Q18Y]	4.01
VPGTQVGQGGKLWDPSVWSCKEGL [Q18W]	3
VPGTQVGQGGKLWDPSVLSCKEGL [Q18L]	3.97
VPGTQVGQGGKLWDPSVSSCKEGL [Q18S]	3.88
VPGTQVGQGGKLWDPSVRSCKEGL [Q18R]	3.05
VPGTQVGQGGKLWDPSVNSCKEGL [Q18N]	3.42

Variants of: B2
Assay: as above
Conditions: c terminus: a fixed tail appended

Variant	protein stability index
ALLHFAETLQPSVWFGGREHVLMF [Q5F]	1.43
ALLHHAETLQPSVWFGGREHVLMF [Q5H]	2.37
ALLHEAETLQPSVWFGGREHVLMF [Q5E]	1.07
ALLHNAETLQPSVWFGGREHVLMF [Q5N]	2.68
ALLHCAETLQPSVWFGGREHVLMF [Q5C]	1.99
ALLHLAETLQPSVWFGGREHVLMF [Q5L]	3.8
ALLHPAETLQPSVWFGGREHVLMF [Q5P]	2.78
ALLHMAETLQPSVWFGGREHVLMF [Q5M]	3.42
ALLHDAETLQPSVWFGGREHVLMF [Q5D]	2.03
ALLGQAETLQPSVWFGGREHVLMF [H4G]	1.75
ALLKQAETLQPSVWFGGREHVLMF [H4K]	1.52
ALLCQAETLQPSVWFGGREHVLMF [H4C]	3.01
ALLFQAETLQPSVWFGGREHVLMF [H4F]	3.14
ALLEQAETLQPSVWFGGREHVLMF [H4E]	1.56
ALLPQAETLQPSVWFGGREHVLMF [H4P]	1.41
ALLNQAETLQPSVWFGGREHVLMF [H4N]	2.84
ALLDQAETLQPSVWFGGREHVLMF [H4D]	1.89
ALLQQAETLQPSVWFGGREHVLMF [H4Q]	1.73
ALLSQAETLQPSVWFGGREHVLMF [H4S]	1.99
ALLYQAETLQPSVWFGGREHVLMF [H4Y]	2.17
ALLAQAETLQPSVWFGGREHVLMF [H4A]	1.9
ALLWQAETLQPSVWFGGREHVLMF [H4W]	3.3

Variant	protein stability index
DLLHQAETLQPSVWFGGREHVLMF [A1D]	1.48
ILLHQAETLQPSVWFGGREHVLMF [A1I]	3.59
FLLHQAETLQPSVWFGGREHVLMF [A1F]	2.59
LLLHQAETLQPSVWFGGREHVLMF [A1L]	2.58
PLLHQAETLQPSVWFGGREHVLMF [A1P]	1.69
YLLHQAETLQPSVWFGGREHVLMF [A1Y]	2.71
GLLHQAETLQPSVWFGGREHVLMF [A1G]	2.95
HLLHQAETLQPSVWFGGREHVLMF [A1H]	2.14
ELLHQAETLQPSVWFGGREHVLMF [A1E]	1.02
QLLHQAETLQPSVWFGGREHVLMF [A1Q]	2.96
CLLHQAETLQPSVWFGGREHVLMF [A1C]	1.71
TLLHQAETLQPSVWFGGREHVLMF [A1T]	2.38
KLLHQAETLQPSVWFGGREHVLMF [A1K]	2.35
RLLHQAETLQPSVWFGGREHVLMF [A1R]	1.81
AALHQAETLQPSVWFGGREHVLMF [L2A]	2.96
ANLHQAETLQPSVWFGGREHVLMF [L2N]	1.06
AILHQAETLQPSVWFGGREHVLMF [L2I]	3.26
AELHQAETLQPSVWFGGREHVLMF [L2E]	1.93
ATLHQAETLQPSVWFGGREHVLMF [L2T]	1.53
APLHQAETLQPSVWFGGREHVLMF [L2P]	1.87
ADLHQAETLQPSVWFGGREHVLMF [L2D]	2.01
ASLHQAETLQPSVWFGGREHVLMF [L2S]	2.83

Variant	protein stability index
AMLHQAETLQPSVWFGGREHVLMF [L2M]	1.93
ACLHQAETLQPSVWFGGREHVLMF [L2C]	3.82
AHLHQAETLQPSVWFGGREHVLMF [L2H]	1.48
AGLHQAETLQPSVWFGGREHVLMF [L2G]	1.2
AQLHQAETLQPSVWFGGREHVLMF [L2Q]	1.42
AVLHQAETLQPSVWFGGREHVLMF [L2V]	1.3
ALEHQAETLQPSVWFGGREHVLMF [L3E]	1.94
ALGHQAETLQPSVWFGGREHVLMF [L3G]	2.83
ALYHQAETLQPSVWFGGREHVLMF [L3Y]	3.46
ALSHQAETLQPSVWFGGREHVLMF [L3S]	2.25
ALCHQAETLQPSVWFGGREHVLMF [L3C]	2.26
ALKHQAETLQPSVWFGGREHVLMF [L3K]	1.71
ALNHQAETLQPSVWFGGREHVLMF [L3N]	1.04
ALVHQAETLQPSVWFGGREHVLMF [L3V]	1.31
ALRHQAETLQPSVWFGGREHVLMF [L3R]	1.62
ALDHQAETLQPSVWFGGREHVLMF [L3D]	1.87
ALTHQAETLQPSVWFGGREHVLMF [L3T]	2.37
ALQHQAETLQPSVWFGGREHVLMF [L3Q]	1.54
ALPHQAETLQPSVWFGGREHVLMF [L3P]	1.61
ALHHQAETLQPSVWFGGREHVLMF [L3H]	1.57
ALAHQAETLQPSVWFGGREHVLMF [L3A]	1.76
